# Test results published in publication PMC10016618 (Nature cell biology, 2021).
# Read-outs that look alike come from different tables or passages of the source.
# T1: Kif7-DM (1-543aa) (human, UniProt Q2M1P5 1-543)
# T1 sequence (looked up): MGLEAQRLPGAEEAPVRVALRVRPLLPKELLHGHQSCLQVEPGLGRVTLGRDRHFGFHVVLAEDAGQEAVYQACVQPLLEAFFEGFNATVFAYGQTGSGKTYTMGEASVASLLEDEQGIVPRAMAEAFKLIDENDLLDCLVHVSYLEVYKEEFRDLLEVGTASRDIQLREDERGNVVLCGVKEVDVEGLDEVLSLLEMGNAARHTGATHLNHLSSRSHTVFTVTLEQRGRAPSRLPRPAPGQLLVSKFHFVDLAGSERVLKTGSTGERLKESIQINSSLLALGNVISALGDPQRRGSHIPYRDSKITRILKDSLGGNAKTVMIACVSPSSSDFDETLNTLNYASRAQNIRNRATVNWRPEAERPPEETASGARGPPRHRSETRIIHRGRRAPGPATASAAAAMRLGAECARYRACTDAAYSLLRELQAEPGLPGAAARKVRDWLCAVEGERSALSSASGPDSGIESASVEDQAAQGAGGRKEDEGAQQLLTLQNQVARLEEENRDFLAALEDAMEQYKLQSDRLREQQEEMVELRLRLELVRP
# T2: Kif7-DM-GFP (1-543aa) (human, UniProt Q2M1P5 1-543)
# T2 sequence (looked up): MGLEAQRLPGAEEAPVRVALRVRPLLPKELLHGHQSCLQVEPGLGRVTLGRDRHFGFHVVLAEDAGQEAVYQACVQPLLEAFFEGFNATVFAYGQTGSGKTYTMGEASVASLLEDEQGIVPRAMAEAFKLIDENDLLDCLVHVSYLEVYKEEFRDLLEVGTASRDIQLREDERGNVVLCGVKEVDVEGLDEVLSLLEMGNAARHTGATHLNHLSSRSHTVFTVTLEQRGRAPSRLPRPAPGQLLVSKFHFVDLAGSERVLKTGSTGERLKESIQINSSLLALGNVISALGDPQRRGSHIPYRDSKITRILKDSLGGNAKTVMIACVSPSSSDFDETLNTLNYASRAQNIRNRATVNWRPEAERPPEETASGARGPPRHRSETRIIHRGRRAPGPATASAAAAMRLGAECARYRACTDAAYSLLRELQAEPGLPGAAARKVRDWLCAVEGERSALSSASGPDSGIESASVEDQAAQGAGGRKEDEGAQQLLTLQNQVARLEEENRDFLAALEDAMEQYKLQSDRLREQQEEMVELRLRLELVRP
# B1: GST-Kif7-CC-GFP (domain or fragment, human, UniProt Q2M1P5 460-600, looked up)
# chain: PDSGIESASVEDQAAQGAGGRKEDEGAQQLLTLQNQVARLEEENRDFLAALEDAMEQYKLQSDRLREQQEEMVELRLRLELVRPGWGGPRLLNGLPPGSFVPRPHTAPLGGAHAHVLGMVPPACLPGDEVGSEQRGEQVTN
# B2: Kif7-DM(E502A)-GFP (domain or fragment, human, UniProt Q2M1P5 1-543, looked up)
# chain: MGLEAQRLPGAEEAPVRVALRVRPLLPKELLHGHQSCLQVEPGLGRVTLGRDRHFGFHVVLAEDAGQEAVYQACVQPLLEAFFEGFNATVFAYGQTGSGKTYTMGEASVASLLEDEQGIVPRAMAEAFKLIDENDLLDCLVHVSYLEVYKEEFRDLLEVGTASRDIQLREDERGNVVLCGVKEVDVEGLDEVLSLLEMGNAARHTGATHLNHLSSRSHTVFTVTLEQRGRAPSRLPRPAPGQLLVSKFHFVDLAGSERVLKTGSTGERLKESIQINSSLLALGNVISALGDPQRRGSHIPYRDSKITRILKDSLGGNAKTVMIACVSPSSSDFDETLNTLNYASRAQNIRNRATVNWRPEAERPPEETASGARGPPRHRSETRIIHRGRRAPGPATASAAAAMRLGAECARYRACTDAAYSLLRELQAEPGLPGAAARKVRDWLCAVEGERSALSSASGPDSGIESASVEDQAAQGAGGRKEDEGAQQLLTLQNQVARLEEANRDFLAALEDAMEQYKLQSDRLREQQEEMVELRLRLELVRP
# B3: Gli2-ZF (domain or fragment, human, UniProt P10070 418-604, looked up)
# chain: KEDLDRDDCKQEAEVVIYETNCHWEDCTKEYDTQEQLVHHINNEHIHGEKKEFVCRWQACTREQKPFKAQYMLVVHMRRHTGEKPHKCTFEGCSKAYSRLENLKTHLRSHTGEKPYVCEHEGCNKAFSNASDRAKHQNRTHSNEKPYICKIPGCTKRYTDPSSLRKHVKTVHGPDAHVTKKQRNDVH
# B4: Gli2-ZF-GFP (domain or fragment, human, UniProt P10070 418-604, looked up)
# chain: KEDLDRDDCKQEAEVVIYETNCHWEDCTKEYDTQEQLVHHINNEHIHGEKKEFVCRWQACTREQKPFKAQYMLVVHMRRHTGEKPHKCTFEGCSKAYSRLENLKTHLRSHTGEKPYVCEHEGCNKAFSNASDRAKHQNRTHSNEKPYICKIPGCTKRYTDPSSLRKHVKTVHGPDAHVTKKQRNDVH
# What was measured:
# [1] = target: B3; assay: BLI
# [2] = target: B4; assay: BLI
# [3] = target: the molecule itself; assay: SEC
# [4] = target: B3; assay: BLI; remark: listed apart in the source
# [5] = target: T1, Kif7-DM (1-543aa); assay: BLI
# [6] = target: T2, Kif7-DM-GFP (1-543aa); assay: BLI
# [7] = target: B2; assay: BLI
# [8] = target: B1; assay: SEC
# [9] = target: T2, Kif7-DM-GFP (1-543aa); assay: SEC
binder,measurement,setting,value
B1,Kd,[1],65 ± 22 nM
same,Kd,[2],57 ± 9 nM
"GST-Kif7-CC (460-600aa) (domain or fragment, human, UniProt Q2M1P5 460-600, looked up) PDSGIESASVEDQAAQGAGGRKEDEGAQQLLTLQNQVARLEEENRDFLAALEDAMEQYKLQSDRLREQQEEMVELRLRLELVRPGWGGPRLLNGLPPGSFVPRPHTAPLGGAHAHVLGMVPPACLPGDEVGSEQRGEQVTN",Kd,[1],48 ± 5 nM
"GST-Kif7-CC D505A (domain or fragment, human, UniProt Q2M1P5 460-600, looked up) PDSGIESASVEDQAAQGAGGRKEDEGAQQLLTLQNQVARLEEENRAFLAALEDAMEQYKLQSDRLREQQEEMVELRLRLELVRPGWGGPRLLNGLPPGSFVPRPHTAPLGGAHAHVLGMVPPACLPGDEVGSEQRGEQVTN",binding result,[1],binds
B2,stoichiometry N,[3],2
"Kif7M-Kif27CC-GFP (other, human, UniProt Q2M1P5 1-462, looked up) MGLEAQRLPGAEEAPVRVALRVRPLLPKELLHGHQSCLQVEPGLGRVTLGRDRHFGFHVVLAEDAGQEAVYQACVQPLLEAFFEGFNATVFAYGQTGSGKTYTMGEASVASLLEDEQGIVPRAMAEAFKLIDENDLLDCLVHVSYLEVYKEEFRDLLEVGTASRDIQLREDERGNVVLCGVKEVDVEGLDEVLSLLEMGNAARHTGATHLNHLSSRSHTVFTVTLEQRGRAPSRLPRPAPGQLLVSKFHFVDLAGSERVLKTGSTGERLKESIQINSSLLALGNVISALGDPQRRGSHIPYRDSKITRILKDSLGGNAKTVMIACVSPSSSDFDETLNTLNYASRAQNIRNRATVNWRPEAERPPEETASGARGPPRHRSETRIIHRGRRAPGPATASAAAAMRLGAECARYRACTDAAYSLLRELQAEPGLPGAAARKVRDWLCAVEGERSALSSASGPDSVLQLKRELKKCQCVLAADEVVFNQKELEVKELKNQVQMMVQENKGHAVSLKEAQKVNRLQNEKIIEQQLLVDQLSEELTKLNLSVTSSAKENCGDG",Kd,[4],397 ± 88 nM
B3,Kd,[5],99 ± 25 nM
same,Kd,[6],138 ± 41 nM
same,Kd,[7],414 ± 103 nM
B4,stoichiometry N,[8],0.5 Gli2-ZF-GFP per Kif7-CC-GFP chain (one per dimer)
same,stoichiometry N,[9],1 Gli2-ZF per Kif7-DM chain (two per dimer)
"Kif27M-Kif7CC-GFP (other, human, UniProt Q86VH2 1-475, looked up) MEEIPVKVAVRIRPLLCKEALHNHQVCVRVIPNSQQVIIGRDRVFTFDFVFGKNSTQDEVYNTCIKPLVLSLIEGYNATVFAYGQTGSGKTYTIGGGHIASVVEGQKGIIPRAIQEIFQSISEHPSIDFNVKVSYIEVYKEDLRDLLELETSMKDLHIREDEKGNTVIVGAKECHVESAGEVMSLLEMGNAARHTGTTQMNEHSSRSHAIFTISICQVHKNMEAAEDGSWYSPRHIVSKFHFVDLAGSERVTKTGNTGERFKESIQINSGLLALGNVISALGDPRRKSSHIPYRDAKITRLLKDSLGGSAKTVMITCVSPSSSNFDESLNSLKYANRARNIRNKPTVNFSPESDRIDEMEFEIKLLREALQSQQAGVSQTTQINREGSPDTNRIHSLEEQVAQLQGECLGYQCCVEEAFTFLVDLKDTVRLNEKQQHKLQEWFNMIQEVRKAVLTSFRGIGGTASLEEGPQHVTVPDSGIESASVEDQAAQGAGGRKEDEGAQQLLTLQNQVARLEEENRDFLAALEDAMEQYKLQSDRLREQQEEMVELRLRLELVRPGWGGPRLLNGLPPGSFVPRPHTAPLGGAHAHVLGMVPPACLPGDEVGSEQRGEQVTN",stoichiometry N,[3],2
same,Kd,[4],217 ± 70 nM
"GST-Kif7-SCC (481-543aa) (domain or fragment, human, UniProt Q2M1P5 481-543, looked up) KEDEGAQQLLTLQNQVARLEEENRDFLAALEDAMEQYKLQSDRLREQQEEMVELRLRLELVRP",Kd,[1],69 ± 20 nM
